Source: US20260125455A1

Legend:
[1] = biological target: purified FIM1-2 domains of C6 (human) (UniProt P13671); assay: ELISA, wells coated with FIM1-2_His, control mouse IgG; replicate 1
[2] = biological target: purified FIM1-2 domains of C6 (human) (UniProt P13671); assay: ELISA, wells coated with FIM1-2_His, control mouse IgG; replicate 2
C6 no His (human) [3] = biological target: C6 no His (human) (UniProt P13671); assay: ELISA, wells coated with 'C6 no His', control mouse IgG; replicate 1
C6 no His (human) [4] = biological target: C6 no His (human) (UniProt P13671); assay: ELISA, wells coated with 'C6 no His', control mouse IgG; replicate 2
C6: 1-934_10xHis (human) [5] = assay: ELISA, wells coated with the C6 construct, control mouse IgG; replicate 1
[6] = biological target: C6Δ1-79: SP_79-934_10xHis (human); assay: as above
[7] = biological target: C6Δ634: 1-634_10xHis (human); assay: as above
[8] = biological target: C6Δ762: 1-762_10xHis (human); assay: as above
C6: 1-934_10xHis (human) [9] = assay: ELISA, wells coated with the C6 construct, control mouse IgG; replicate 2
[10] = biological target: C6Δ1-79: SP_79-934_10xHis (human); assay: as above
[11] = biological target: C6Δ634: 1-634_10xHis (human); assay: as above
[12] = biological target: C6Δ762: 1-762_10xHis (human); assay: as above
[13] = biological target: human complement protein C6 (human) (UniProt P13671); assay: ELISA, wells coated with 'C6 from Comptech', control mouse IgG; replicate 1
[14] = biological target: human complement protein C6 (human) (UniProt P13671); assay: ELISA, wells coated with 'C6 from Comptech', control mouse IgG; replicate 2

Sequence of C6: 1-934_10xHis (human) (P13671 22-934): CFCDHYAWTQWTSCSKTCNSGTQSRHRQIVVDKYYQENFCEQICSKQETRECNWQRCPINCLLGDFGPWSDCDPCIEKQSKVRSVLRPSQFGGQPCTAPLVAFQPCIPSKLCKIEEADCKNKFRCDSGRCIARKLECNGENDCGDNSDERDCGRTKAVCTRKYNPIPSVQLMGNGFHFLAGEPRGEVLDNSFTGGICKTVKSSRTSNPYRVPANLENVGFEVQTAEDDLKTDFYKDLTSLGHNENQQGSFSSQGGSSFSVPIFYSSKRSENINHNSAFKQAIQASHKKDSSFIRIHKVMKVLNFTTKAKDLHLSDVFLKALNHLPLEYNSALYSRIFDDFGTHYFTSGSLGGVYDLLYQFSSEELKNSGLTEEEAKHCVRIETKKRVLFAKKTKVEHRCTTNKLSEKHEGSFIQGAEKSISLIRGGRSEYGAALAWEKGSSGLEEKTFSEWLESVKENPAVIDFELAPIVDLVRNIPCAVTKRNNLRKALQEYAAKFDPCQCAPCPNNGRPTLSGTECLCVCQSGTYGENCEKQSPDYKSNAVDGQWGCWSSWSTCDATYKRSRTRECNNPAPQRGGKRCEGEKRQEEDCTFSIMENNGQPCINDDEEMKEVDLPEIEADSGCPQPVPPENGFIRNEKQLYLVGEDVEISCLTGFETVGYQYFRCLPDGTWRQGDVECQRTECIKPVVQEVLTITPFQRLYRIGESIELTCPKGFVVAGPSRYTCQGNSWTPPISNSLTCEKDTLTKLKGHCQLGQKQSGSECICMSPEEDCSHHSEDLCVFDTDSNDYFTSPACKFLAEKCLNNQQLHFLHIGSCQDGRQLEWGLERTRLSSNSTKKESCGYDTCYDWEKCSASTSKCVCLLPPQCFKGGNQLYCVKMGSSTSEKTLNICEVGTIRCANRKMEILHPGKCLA
Sequence of C6 no His (human) (P13671 22-934 limits assumed): as the sequence (P13671 22-934) above
Sequence of human complement protein C6 (human) (P13671 22-934 limits assumed): as the sequence (P13671 22-934) above
Sequence of C6Δ1-79: SP_79-934_10xHis (human) (P13671 79-934, stated change not applied): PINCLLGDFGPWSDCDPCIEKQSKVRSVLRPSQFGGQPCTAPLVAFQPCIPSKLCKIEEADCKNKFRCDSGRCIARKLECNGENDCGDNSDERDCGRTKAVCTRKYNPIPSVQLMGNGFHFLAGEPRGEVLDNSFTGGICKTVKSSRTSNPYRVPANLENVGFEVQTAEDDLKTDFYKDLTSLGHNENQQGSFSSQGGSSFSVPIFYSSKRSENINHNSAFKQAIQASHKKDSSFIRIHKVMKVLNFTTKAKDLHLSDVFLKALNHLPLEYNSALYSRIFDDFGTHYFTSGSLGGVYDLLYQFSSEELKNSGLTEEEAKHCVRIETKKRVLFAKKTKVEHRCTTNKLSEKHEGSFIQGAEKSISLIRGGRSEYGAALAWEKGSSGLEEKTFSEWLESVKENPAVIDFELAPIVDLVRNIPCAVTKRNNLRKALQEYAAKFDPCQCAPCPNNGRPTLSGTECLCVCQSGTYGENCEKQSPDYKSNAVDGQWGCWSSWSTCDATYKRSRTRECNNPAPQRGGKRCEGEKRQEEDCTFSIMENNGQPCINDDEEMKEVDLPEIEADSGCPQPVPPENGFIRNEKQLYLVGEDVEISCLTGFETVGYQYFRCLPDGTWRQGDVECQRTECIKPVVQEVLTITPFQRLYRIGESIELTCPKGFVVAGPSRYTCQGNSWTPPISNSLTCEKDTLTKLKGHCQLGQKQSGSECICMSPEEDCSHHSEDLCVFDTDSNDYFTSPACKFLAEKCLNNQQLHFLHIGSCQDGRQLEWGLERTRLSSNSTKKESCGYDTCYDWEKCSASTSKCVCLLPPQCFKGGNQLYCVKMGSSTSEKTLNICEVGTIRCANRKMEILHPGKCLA
Sequence of C6Δ762: 1-762_10xHis (human) (P13671 22-762, stated change not applied): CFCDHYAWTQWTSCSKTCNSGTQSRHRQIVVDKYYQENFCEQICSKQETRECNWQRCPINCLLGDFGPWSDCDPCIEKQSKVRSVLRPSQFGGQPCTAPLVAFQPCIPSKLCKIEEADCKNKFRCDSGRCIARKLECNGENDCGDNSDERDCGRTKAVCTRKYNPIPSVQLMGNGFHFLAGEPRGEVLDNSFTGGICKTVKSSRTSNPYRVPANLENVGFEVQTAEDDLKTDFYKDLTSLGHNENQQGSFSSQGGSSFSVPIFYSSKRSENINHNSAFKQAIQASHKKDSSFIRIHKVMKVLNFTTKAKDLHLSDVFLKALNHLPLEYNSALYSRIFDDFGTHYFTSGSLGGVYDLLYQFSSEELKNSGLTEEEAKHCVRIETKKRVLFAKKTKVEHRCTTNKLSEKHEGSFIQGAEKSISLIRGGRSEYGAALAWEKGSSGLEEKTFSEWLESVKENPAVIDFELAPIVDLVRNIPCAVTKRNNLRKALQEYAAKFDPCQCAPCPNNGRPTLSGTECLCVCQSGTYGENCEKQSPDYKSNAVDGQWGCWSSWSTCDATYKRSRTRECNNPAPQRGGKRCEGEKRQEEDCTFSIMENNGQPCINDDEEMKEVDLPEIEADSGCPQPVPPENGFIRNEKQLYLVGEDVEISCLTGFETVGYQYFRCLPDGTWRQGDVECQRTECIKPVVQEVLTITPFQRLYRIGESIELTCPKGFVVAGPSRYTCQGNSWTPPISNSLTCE
Sequence of C6Δ634: 1-634_10xHis (human) (P13671 22-634, stated change not applied): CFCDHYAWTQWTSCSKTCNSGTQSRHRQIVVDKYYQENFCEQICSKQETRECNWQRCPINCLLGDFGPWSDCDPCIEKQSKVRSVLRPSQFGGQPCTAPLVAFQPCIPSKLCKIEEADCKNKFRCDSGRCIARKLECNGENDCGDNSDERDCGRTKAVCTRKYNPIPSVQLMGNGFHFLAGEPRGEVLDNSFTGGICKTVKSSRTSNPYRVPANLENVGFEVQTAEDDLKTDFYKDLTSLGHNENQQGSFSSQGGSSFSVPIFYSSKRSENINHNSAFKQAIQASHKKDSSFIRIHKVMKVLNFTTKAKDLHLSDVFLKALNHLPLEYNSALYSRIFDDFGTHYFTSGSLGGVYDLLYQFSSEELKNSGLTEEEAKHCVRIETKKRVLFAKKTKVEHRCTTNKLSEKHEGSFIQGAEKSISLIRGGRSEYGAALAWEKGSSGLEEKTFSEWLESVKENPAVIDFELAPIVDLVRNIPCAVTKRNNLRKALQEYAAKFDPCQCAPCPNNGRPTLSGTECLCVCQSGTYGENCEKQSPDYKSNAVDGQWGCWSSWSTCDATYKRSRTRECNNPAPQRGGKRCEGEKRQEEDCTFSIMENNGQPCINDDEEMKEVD
Sequence of purified FIM1-2 domains of C6 (human) (P13671 766-934 limits assumed): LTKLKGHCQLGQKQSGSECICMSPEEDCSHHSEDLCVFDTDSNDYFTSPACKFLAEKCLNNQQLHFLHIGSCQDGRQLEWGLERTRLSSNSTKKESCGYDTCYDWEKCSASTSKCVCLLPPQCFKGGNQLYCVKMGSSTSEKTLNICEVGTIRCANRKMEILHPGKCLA

ELISA plate reading (no name or unit printed) [1]: 0.0413
ELISA plate reading (no name or unit printed) [2]: 0.0429
ELISA plate reading (no name or unit printed) (C6 no His (human) [3]): 0.0488
ELISA plate reading (no name or unit printed) (C6 no His (human) [4]): 0.115
ELISA plate reading (no name or unit printed) (C6: 1-934_10xHis (human) [5]): 0.0472
ELISA plate reading (no name or unit printed) [6]: 0.0811
ELISA plate reading (no name or unit printed) [7]: 0.0441
ELISA plate reading (no name or unit printed) [8]: 0.0623
ELISA plate reading (no name or unit printed) (C6: 1-934_10xHis (human) [9]): 0.0481
ELISA plate reading (no name or unit printed) [10]: 0.0935
ELISA plate reading (no name or unit printed) [11]: 0.0472
ELISA plate reading (no name or unit printed) [12]: 0.0648
ELISA plate reading (no name or unit printed) [13]: 0.0666
ELISA plate reading (no name or unit printed) [14]: 0.0728
Substance: mIgG (antibody)
